In patent US20240132626A1:

Biological target: Soluble human CD137 ECD protein (human) (UniProt Q07011)
Test: SPR, captured via anti-human kappa, soluble ECD injected

Chain of Urelumab (antibody) (VH): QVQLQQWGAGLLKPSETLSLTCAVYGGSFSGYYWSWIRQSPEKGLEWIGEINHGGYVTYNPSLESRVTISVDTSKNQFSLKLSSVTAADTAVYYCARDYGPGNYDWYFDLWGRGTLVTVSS
Chain of Urelumab (antibody) (VL): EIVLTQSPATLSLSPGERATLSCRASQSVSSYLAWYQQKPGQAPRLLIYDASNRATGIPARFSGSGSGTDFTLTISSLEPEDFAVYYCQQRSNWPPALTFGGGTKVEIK
Chain of Soluble human CD137 ECD protein (human) (Q07011 24-186): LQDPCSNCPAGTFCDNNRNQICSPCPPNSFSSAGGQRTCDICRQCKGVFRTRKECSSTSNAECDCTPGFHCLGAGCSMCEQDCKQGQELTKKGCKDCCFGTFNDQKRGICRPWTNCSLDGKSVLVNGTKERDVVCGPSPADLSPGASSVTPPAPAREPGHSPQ

Urelumab (antibody)
Kd: 11 nM | koff: 0.0023 s⁻¹ | kon: 210000 M⁻¹ s⁻¹
